Measurements published in US20240200091A1, “USE OF PROTOPORPHYRINOGEN OXIDASE” (BEIJING DABEINONG BIOTECHNOLOGY CO., LTD., priority 2021, published 2024).

How the values were obtained:
Format in all cases: in vivo
[1] = test system: transgenic soybean plants; assay: oxyfluorfen tolerance of transgenic soybean plants (spray, grade of pesticide damage); conditions: for The grade of pesticide damage/plant: grade 0 / The grade of pesticide damage/plant: grade 1 / The grade of pesticide damage/plant: grade 2 / The grade of pesticide damage/plant: grade 3: 7 DAT, number of plants of 16 per genotype, grades
[2] = test system: Arabidopsis thaliana T1 plants; assay: saflufenacil tolerance of transgenic Arabidopsis thaliana T1 plants (spray, grade of pesticide damage); conditions: for The grade of pesticide damage/plant: grade 0 / The grade of pesticide damage/plant: grade 1 / The grade of pesticide damage/plant: grade 2 / The grade of pesticide damage/plant: grade 3: 7 DAT, number of plants of 24 per genotype, grades
How it was run: (§1)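 Saflufenacil (25, 100 g ai/ha), sulfentrazone (450, 900), flumioxazin (60, 240) and oxyfluorfen (180, 720) or water were sprayed on 18-day-old PPO-transgenic T1 plants, control-vector and wild-type plants, 24 per genotype. Seven days later, damage was graded: 0 as in water controls, 1 <10% injured leaf area, 3 100%.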

[3] = test system: transgenic soybean plants; assay: saflufenacil tolerance of transgenic soybean plants (spray, grade of pesticide damage); conditions: for The grade of pesticide damage/plant: grade 0 / The grade of pesticide damage/plant: grade 1 / The grade of pesticide damage/plant: grade 2 / The grade of pesticide damage/plant: grade 3: 7 DAT, number of plants of 16 per genotype, grades
[4] = test system: Arabidopsis thaliana T1 plants; assay: flumioxazin tolerance of transgenic Arabidopsis thaliana T1 plants (spray, grade of pesticide damage); conditions: for The grade of pesticide damage/plant: grade 0 / The grade of pesticide damage/plant: grade 1 / The grade of pesticide damage/plant: grade 2 / The grade of pesticide damage/plant: grade 3: 7 DAT, number of plants of 24 per genotype, grades
How it was run: as §1

[5] = test system: Arabidopsis thaliana T1 plants; assay: oxyfluorfen tolerance of transgenic Arabidopsis thaliana T1 plants (spray, grade of pesticide damage); conditions: for The grade of pesticide damage/plant: grade 0 / The grade of pesticide damage/plant: grade 1 / The grade of pesticide damage/plant: grade 2 / The grade of pesticide damage/plant: grade 3: 7 DAT, number of plants of 24 per genotype, grades
How it was run: as §1

[6] = test system: transgenic soybean plants; assay: flumioxazin tolerance of transgenic soybean plants (spray, grade of pesticide damage); conditions: for The grade of pesticide damage/plant: grade 0 / The grade of pesticide damage/plant: grade 1 / The grade of pesticide damage/plant: grade 2 / The grade of pesticide damage/plant: grade 3: 7 DAT, number of plants of 16 per genotype, grades
[7] = test system: Arabidopsis thaliana T1 plants; assay: sulfentrazone tolerance of transgenic Arabidopsis thaliana T1 plants (spray, grade of pesticide damage); conditions: for The grade of pesticide: grade 0 / The grade of pesticide: grade 1 / The grade of pesticide: grade 2 / The grade of pesticide: grade 3: 7 DAT, number of plants of 24 per genotype, grades
How it was run: as §1

B1: PPO-APA: nucleotide sequence encoding Arsenophonus protoporphyrinogen oxidase PPO-AP (SEQ ID NO:65), Arabidopsis thaliana/soybean common codon usage bias (nucleic acid)
DNA: ATGTCTTACCTGCTGTTATATTCAGGGAAAAATGGACAAACCAAGAAGATCATTCTGAAAATAACAGAGTATCTTCGAAAAGAAGGAAAGCAATGTGATGTTAGAGATTTGAACATGGATAAGAACTTCAACCTTTCTGTATATCAGAAGGTGCTCGTTGGTGCCTCGATAAGATATGGTCATTTCAATCCCGCAGTCCTCAATTTTGCTCAGAATCACCAAAAGGAGTTAAACACTATTCAATCAGCTTTCTTTGGCGTGAATTTGATGGCTCGTAAACAAGGAAAAGATACTCCTGAGACAAATGTGTATGTGAGGAAGTTTCTTGCCAAAATTCCATGGCAACCAACAATCACCAATGTTTTCAGTGGAGCGTTGAGGTATCCTCAGTACAAATGGCTTGACCGGATAATGATTCAGTTTATCATGAAGATTACTGGTGGTGAAACAAACAAAAACAAGGAAGTTGAATATACTGATTGGGAAAAGGTAGAGTACTTTGCAAGAGAGTTTAATGCTTTGAAATGA
modifications: The nucleotide sequence of PPO-APA
no tolerance: tolerance to oxyfluorfen ([1]; soybean, oxyfluorfen at four-fold field concentration (720 g ai/ha)) | tolerance to saflufenacil ([2]; saflufenacil at four-fold field concentration (100 g ai/ha)) | tolerance to saflufenacil ([2]; saflufenacil at one-fold field concentration (25 g ai/ha)) | tolerance to sulfentrazone ([7]; sulfentrazone at different concentrations (450 and 900 g ai/ha))
16 plant: The grade of pesticide damage/plant: grade 3 ([1]; oxyfluorfen 720 g ai/ha (4×)) | The grade of pesticide damage/plant: grade 3 ([3]; saflufenacil 100 g ai/ha (4×)) | The grade of pesticide damage/plant: grade 3 ([6]; flumioxazin 120 g ai/ha (2×)) | The grade of pesticide damage/plant: grade 3 ([6]; flumioxazin 240 g ai/ha (4×))
basically no tolerance: tolerance to saflufenacil ([3]; soybean, saflufenacil, compared with the control vector and CK) | tolerance to flumioxazin ([4]; flumioxazin at different concentrations (60 and 240 g ai/ha)) | tolerance to oxyfluorfen ([5]; oxyfluorfen at different concentrations (180 and 720 g ai/ha), compared with the control vector and CK)
0 plant: The grade of pesticide damage/plant: grade 0 ([1]; oxyfluorfen 360 g ai/ha (2×)) | The grade of pesticide damage/plant: grade 1 ([1]; oxyfluorfen 360 g ai/ha (2×)) | The grade of pesticide damage/plant: grade 0 ([1]; oxyfluorfen 720 g ai/ha (4×)) | The grade of pesticide damage/plant: grade 1 ([1]; oxyfluorfen 720 g ai/ha (4×)) | The grade of pesticide damage/plant: grade 2 ([1]; oxyfluorfen 720 g ai/ha (4×)) | The grade of pesticide damage/plant: grade 0 ([2]; saflufenacil 25 g ai/ha (1×)) | The grade of pesticide damage/plant: grade 1 ([2]; saflufenacil 25 g ai/ha (1×)) | The grade of pesticide damage/plant: grade 2 ([2]; saflufenacil 25 g ai/ha (1×)) | The grade of pesticide damage/plant: grade 0 ([2]; saflufenacil 100 g ai/ha (4×)) | The grade of pesticide damage/plant: grade 1 ([2]; saflufenacil 100 g ai/ha (4×)) | The grade of pesticide damage/plant: grade 2 ([2]; saflufenacil 100 g ai/ha (4×)) | The grade of pesticide damage/plant: grade 0 ([3]; saflufenacil 50 g ai/ha (2×)) | The grade of pesticide damage/plant: grade 1 ([3]; saflufenacil 50 g ai/ha (2×)) | The grade of pesticide damage/plant: grade 0 ([3]; saflufenacil 100 g ai/ha (4×)) | The grade of pesticide damage/plant: grade 1 ([3]; saflufenacil 100 g ai/ha (4×)) | The grade of pesticide damage/plant: grade 2 ([3]; saflufenacil 100 g ai/ha (4×)) | The grade of pesticide damage/plant: grade 0 ([4]; flumioxazin 60 g ai/ha (1×)) | The grade of pesticide damage/plant: grade 1 ([4]; flumioxazin 60 g ai/ha (1×)) | The grade of pesticide damage/plant: grade 2 ([4]; flumioxazin 60 g ai/ha (1×)) | The grade of pesticide damage/plant: grade 0 ([4]; flumioxazin 240 g ai/ha (4×)) | The grade of pesticide damage/plant: grade 1 ([4]; flumioxazin 240 g ai/ha (4×)) | The grade of pesticide damage/plant: grade 2 ([4]; flumioxazin 240 g ai/ha (4×)) | The grade of pesticide damage/plant: grade 0 ([5]; oxyfluorfen 180 g ai/ha (1×)) | The grade of pesticide damage/plant: grade 1 ([5]; oxyfluorfen 180 g ai/ha (1×)) | The grade of pesticide damage/plant: grade 2 ([5]; oxyfluorfen 180 g ai/ha (1×)) | The grade of pesticide damage/plant: grade 0 ([5]; oxyfluorfen 720 g ai/ha (4×)) | The grade of pesticide damage/plant: grade 1 ([5]; oxyfluorfen 720 g ai/ha (4×)) | The grade of pesticide damage/plant: grade 2 ([5]; oxyfluorfen 720 g ai/ha (4×)) | The grade of pesticide damage/plant: grade 0 ([6]; flumioxazin 120 g ai/ha (2×)) | The grade of pesticide damage/plant: grade 1 ([6]; flumioxazin 120 g ai/ha (2×)) | The grade of pesticide damage/plant: grade 2 ([6]; flumioxazin 120 g ai/ha (2×)) | The grade of pesticide damage/plant: grade 0 ([6]; flumioxazin 240 g ai/ha (4×)) | The grade of pesticide damage/plant: grade 1 ([6]; flumioxazin 240 g ai/ha (4×)) | The grade of pesticide damage/plant: grade 2 ([6]; flumioxazin 240 g ai/ha (4×))
24 plant: The grade of pesticide damage/plant: grade 3 ([2]; saflufenacil 25 g ai/ha (1×)) | The grade of pesticide damage/plant: grade 3 ([2]; saflufenacil 100 g ai/ha (4×)) | The grade of pesticide damage/plant: grade 3 ([4]; flumioxazin 60 g ai/ha (1×)) | The grade of pesticide damage/plant: grade 3 ([4]; flumioxazin 240 g ai/ha (4×)) | The grade of pesticide damage/plant: grade 3 ([5]; oxyfluorfen 180 g ai/ha (1×)) | The grade of pesticide damage/plant: grade 3 ([5]; oxyfluorfen 720 g ai/ha (4×))
24: The grade of pesticide: grade 3 ([7]; sulfentrazone 450 g ai/ha (1×)) | The grade of pesticide: grade 3 ([7]; sulfentrazone 900 g ai/ha (2×))
0: The grade of pesticide: grade 0 ([7]; sulfentrazone 450 g ai/ha (1×)) | The grade of pesticide: grade 1 ([7]; sulfentrazone 450 g ai/ha (1×)) | The grade of pesticide: grade 2 ([7]; sulfentrazone 450 g ai/ha (1×)) | The grade of pesticide: grade 0 ([7]; sulfentrazone 900 g ai/ha (2×)) | The grade of pesticide: grade 1 ([7]; sulfentrazone 900 g ai/ha (2×)) | The grade of pesticide: grade 2 ([7]; sulfentrazone 900 g ai/ha (2×))
8 plant: The grade of pesticide damage/plant: grade 2 ([1]; oxyfluorfen 360 g ai/ha (2×)) | The grade of pesticide damage/plant: grade 3 ([1]; oxyfluorfen 360 g ai/ha (2×)) | The grade of pesticide damage/plant: grade 2 ([3]; saflufenacil 50 g ai/ha (2×)) | The grade of pesticide damage/plant: grade 3 ([3]; saflufenacil 50 g ai/ha (2×))
no flumioxazin tolerance: tolerance to flumioxazin ([6]; soybean, flumioxazin at different concentrations (120 and 240 g ai/ha))
